One block for each sequence: values may come before it.
Columns and labels:
[1] = biological target: HLA-C*03:03; experiment: IEDB peptide-MHC binding, purified MHC/direct/fluorescence; filed as Kd, often an IC50 or EC50 that approximates it; ≥ and ≤ were set here for values at or beyond the usual limits of such assays
[2] = biological target: HLA-B*07:02; experiment: as above; conditions: source organism: Mammarenavirus juninense
[3] = biological target: HLA-B*58:01; experiment: IEDB peptide-MHC binding, purified MHC/competitive/radioactivity; filed as Kd, often an IC50 or EC50 that approximates it; ≥ and ≤ were set here for values at or beyond the usual limits of such assays
[4] = biological target: HLA-B*57:01; experiment: as above
[5] = biological target: HLA-A*11:01; experiment: IEDB peptide-MHC binding, purified MHC/competitive/fluorescence; ≥ and ≤ were set here for values at or beyond the usual limits of such assays
[6] = biological target: HLA-B*35:01; experiment: IEDB peptide-MHC binding, purified MHC/competitive/fluorescence; filed as Kd, often an IC50 or EC50 that approximates it; ≥ and ≤ were set here for values at or beyond the usual limits of such assays
[7] = biological target: HLA-B*15:01; experiment: IEDB peptide-MHC binding, purified MHC/direct/fluorescence; filed as Kd, often an IC50 or EC50 that approximates it; ≥ and ≤ were set here for values at or beyond the usual limits of such assays; conditions: source organism: Mycobacterium tuberculosis C
[8] = biological target: HLA-C*12:03; experiment: as above
[9] = biological target: HLA-A*30:01; experiment: IEDB peptide-MHC binding, purified MHC/competitive/radioactivity; filed as Kd, often an IC50 or EC50 that approximates it; ≥ and ≤ were set here for values at or beyond the usual limits of such assays; conditions: source organism: Dengue virus 4 Philippines/H241/1956
[10] = biological target: HLA-B*46:01; experiment: IEDB peptide-MHC binding, purified MHC/competitive/fluorescence; filed as Kd, often an IC50 or EC50 that approximates it; ≥ and ≤ were set here for values at or beyond the usual limits of such assays; conditions: source organism: Giardia lamblia ATCC 50803
[11] = biological target: HLA-B*15:17; experiment: IEDB peptide-MHC binding, purified MHC/direct/fluorescence; filed as Kd, often an IC50 or EC50 that approximates it; ≥ and ≤ were set here for values at or beyond the usual limits of such assays; conditions: source organism: Giardia lamblia ATCC 50803
[12] = biological target: HLA-B*58:01; experiment: as above; conditions: source organism: Giardia lamblia ATCC 50803
[13] = biological target: HLA-B*57:01; experiment: as above; conditions: source organism: Giardia lamblia ATCC 50803
[14] = biological target: HLA-A*01:01; experiment: IEDB peptide-MHC binding, purified MHC/competitive/fluorescence; filed as Kd, often an IC50 or EC50 that approximates it; ≥ and ≤ were set here for values at or beyond the usual limits of such assays
[15] = biological target: HLA-A*03:01; experiment: as above; conditions: source organism: Escherichia coli
[16] = biological target: HLA-B*15:01; experiment: as above; conditions: source organism: Escherichia coli
[17] = biological target: HLA-B*35:01; experiment: IEDB peptide-MHC binding, purified MHC/competitive/radioactivity; filed as Kd, often an IC50 or EC50 that approximates it; ≥ and ≤ were set here for values at or beyond the usual limits of such assays
[18] = biological target: HLA-B*07:02; experiment: as above
[19] = biological target: HLA-B*53:01; experiment: as above
[20] = biological target: HLA-B*54:01; experiment: as above
[21] = biological target: HLA-B*51:01; experiment: as above
[22] = biological target: HLA-B*18:01; experiment: IEDB peptide-MHC binding, purified MHC/direct/fluorescence; filed as Kd, often an IC50 or EC50 that approximates it; ≥ and ≤ were set here for values at or beyond the usual limits of such assays; conditions: source organism: Francisella tularensis subsp. holarctica LVS
[23] = biological target: HLA-B*40:01; experiment: as above; conditions: source organism: Francisella tularensis subsp. holarctica LVS
[24] = source organism: Dengue virus 1 Singapore/S275/1990
[25] = source organism: Dengue virus 2 Peru/IQT2913/1996
[26] = source organism: Dengue virus 4 Philippines/H241/1956
[27] = source organism: Giardia lamblia ATCC 50803
[28] = source organism: Dengue virus 1 Brazil/97-11/1997
[29] = source organism: Vaccinia virus WR
[30] = source organism: Dengue virus 3 Martinique/1243/1999
[31] = source organism: Lymphocytic choriomeningitis virus (strain Armstrong)

Sequence: AAVKAGASI
Kd ([1]; source organism: Mammarenavirus machupoense): ≤ 1 nM | Kd [2]: 2060 nM

Sequence: ASSVLLWMAS
Kd [3, 24]: 690 nM | Kd [4, 24]: 15100 nM

Sequence: ATLEDDRER
IC50 ([5]; source organism: Variola virus): 49400 nM

Sequence: DRSDGYFLK
IC50 ([5]; source organism: Vaccinia virus Copenhagen): 31800 nM

Sequence: EQFWCGIPY
Kd ([6]; source organism: Mycobacterium tuberculosis C): 0.2 nM | Kd [7]: 78.8 nM

Sequence: ESWEEIPYLG
Kd [3, 25]: 90.3 nM | Kd [4, 25]: 78.3 nM

Kd ([8]; source organism: Homo sapiens): ≤ 1 nM
Sequence: FIFPASKVY

Sequence: GASKRSWPLN
Kd [9]: 257 nM | Kd [3, 26]: 763 nM | Kd [4, 26]: 106 nM

Sequence: IASPILFPF
Kd [10]: 92.3 nM | Kd [8, 27]: 594 nM | Kd [11]: 1.5 nM | Kd [1, 27]: 3 nM | Kd [12]: 3 nM | Kd [13]: 14.8 nM

Sequence: ITDITKYLY
Kd ([14]; source organism: Bacillus cereus G9241): 2.1 nM

Kd [15]: ≥ 20000 nM | Kd [16]: 2400 nM | Kd ([14]; source organism: Escherichia coli): 3 nM
Sequence: ITDYIVGYY

Sequence: KASQEGPLPE
Kd [3, 28]: 669 nM | Kd [4, 28]: 894 nM

Sequence: KPYTAGNKV
Kd [17, 29]: ≥ 77400 nM | Kd [18, 29]: 36.6 nM | Kd [19, 29]: ≥ 78200 nM | Kd [20, 29]: 29.5 nM | Kd [21, 29]: 10.3 nM

Sequence: LPFYETLPEL
Kd [17, 29]: 63.1 nM | Kd [18, 29]: 79.8 nM | Kd [19, 29]: 57 nM | Kd [20, 29]: 29.7 nM | Kd [21, 29]: 55.1 nM

Kd ([14]; source organism: Escherichia coli O139:H28 str. E24377A): ≥ 20000 nM
Sequence: LSDICSGLQ

Sequence: MEVGNTVAF
Kd ([6]; source organism: Francisella tularensis subsp. tularensis FSC198): 558 nM | Kd [22]: ≤ 1 nM | Kd [23]: 1.6 nM

Sequence: MGITAEWLW
Kd [19, 30]: 6.6 nM | Kd [3, 30]: 0.436 nM | Kd [4, 30]: 8.74 nM

Sequence: MPSEDGAEAL
Kd [17, 31]: 68.1 nM | Kd [18, 31]: 1360 nM | Kd [19, 31]: 1730 nM | Kd [20, 31]: 2850 nM | Kd [21, 31]: ≥ 21500 nM

Sequence: NPTKYIRWKL
Kd [17, 29]: 15000 nM | Kd [18, 29]: 27 nM | Kd [19, 29]: 2020 nM | Kd [20, 29]: 5880 nM | Kd [21, 29]: ≥ 59400 nM

— the Immune Epitope Database (IEDB)
